From patent US6551840B2, “Method of screening TGF-β-inhibiting substances” (Chugai Seiyaku Kabushiki Kaisha, priority 1997, dated 2003)

T1: TAK1 (Mus musculus, UniProt Q62073)
T1 construct: A gene encoding a full-length TAK1 was prepared by digesting yeast 2-hybrid expression plasmid pBTMHu11F; expressed in transfected cells; host or cells: Saccharomyces cerevisiae strain L40
T1 sequence (Q62073 1-579): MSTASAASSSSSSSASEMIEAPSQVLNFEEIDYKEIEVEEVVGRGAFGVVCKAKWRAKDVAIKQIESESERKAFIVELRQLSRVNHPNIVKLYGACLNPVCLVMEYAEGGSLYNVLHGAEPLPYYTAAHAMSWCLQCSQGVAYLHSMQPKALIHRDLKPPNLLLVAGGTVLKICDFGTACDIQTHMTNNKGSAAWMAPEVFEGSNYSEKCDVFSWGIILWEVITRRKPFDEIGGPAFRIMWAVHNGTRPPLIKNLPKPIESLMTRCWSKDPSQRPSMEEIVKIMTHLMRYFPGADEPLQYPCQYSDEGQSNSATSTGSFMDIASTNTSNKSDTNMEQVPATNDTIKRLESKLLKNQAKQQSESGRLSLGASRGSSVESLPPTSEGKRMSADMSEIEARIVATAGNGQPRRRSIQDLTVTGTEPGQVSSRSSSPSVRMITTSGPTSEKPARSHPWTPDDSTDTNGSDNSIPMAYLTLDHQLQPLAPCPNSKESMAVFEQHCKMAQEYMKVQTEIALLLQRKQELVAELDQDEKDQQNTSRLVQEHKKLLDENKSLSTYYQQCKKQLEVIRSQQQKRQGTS


What follows are molecules tested against T1, TAK1 (assay: Yeast 2-hybrid method, β-galactosidase activity: binding ability of TAB1 deletion mutants to TAK1). Conditions: yeast L40 co-transformed with TAK1 2-hybrid expression plasmid; GAL4 activation domain fusion; measured three times.
Type: cell-based
Text: In order to evaluate each TAB1 deletion mutant constructed in Example 10, a yeast 2-hybrid expression vector of each TAB1 deletion mutant and a yeast 2-hybrid expression vector pBTMHu11F (Shibuya H. et al., Science (1996) 272, 1179-1182) that expresses TAK1 were co-transformed into a yeast strain L40 (Shibuya H. et al., Science (1996) 272, 1179-1182). […] each of a TAB1 deletion mutant expression vector (pGAD-TAB1C45 to pGAD-TAB1C45 in Working Example 10-1 and pGAD-TAB1C45D14 to pGAD-TAB1C45D25 in Working Example 10-2) or pGAD-TAB1 (Shibuya H. et al., Science (1996) 272, 1179-1182) as a control and pBTMHu11F were introduced into the L40 strain according to the instructions (MATCHMAKER™ Two-Hybrid System, manufactured by CLONTECH), and were incubated on a selection agar medium SD-ULW (glucose 20 g, agar (manufactured by DIFCO) 20 g, Yeast Nitrogen Base w/o amino acids (manufactured by DIFCO) 6.7 g, adenine 100 mg, isoleucine 30 mg, valine 150 mg, arginine 20 mg, lysine 30 mg, methionine 20 mg, phenylalanine 50 mg, threonine 200 mg, tyrosine 30 mg, histidine 100 mg-per liter of medium) at 30° C. for 3 days to obtain each transformant.
In order to evaluate the binding ability to TAK1 of each TAB1 deletion mutant constructed in Example 10, activity was determined by the yeast 2-hybrid method. Since a reporter gene lacZ having the LexA binding sequence upstream thereof has been integrated on the chromosome of the yeast strain L40, the binding ability to TAK1 of each TAB1 deletion mutant can be evaluated in relative terms by measuring the activity of β-galactosidase that is a reporter gene product.
(§1) The β-galactosidase activity of each transformant obtained in Example 11 was determined according to the instructions (MATCHMAKER™ Two-Hybrid System, manufactured by CLONTECH), and the activity was calculated using Miller Unit (Miller, J. H. (1972) Experiments in Molecular Genetics, Cold Spring Harbor Laboratory, Cold Spring Harbor, N.Y.).
In FIG. 11, the β-galactosidase activity of each TAB1 deletion mutant and the yeast L40 transformed by the yeast 2-hybrid expression plasmid of TAK1 was expressed in terms of Miller Units. Measurement was carried out three times and the mean+/−SD is shown. The value indicates a ratio based on the β-galactosidase activity of the yeast L40 transformed by TAB1C68 and the yeast 2-hybrid expression plasmid of TAK1.
as §1, with “Units” for “Unit”
In FIG. 12, the β-galactosidase activity of the yeast L40 transformed by each TAB1 deletion mutant and the yeast 2-hybrid expression plasmid of TAK1 was expressed in terms of Miller Units. Measurement was carried out three times and the mean+/−SD is shown. The value indicates a ratio based on the β-galactosidase activity of the yeast L40 transformed by the TAB1C68 and yeast 2-hybrid expression plasmid of TAK1.
First, binding between the 68, 45, 40, 35, 30 and 25 amino acid regions of the carboxy terminal of TAB1 and TAK1 was evaluated by the yeast 2-hybrid method mentioned above.

Molecule	specific activity: β-galactosidase activity as ratio to TAB1C68
TAB1C20: polypeptide comprising 20 amino acids of the carboxy terminal of TAB1 (AEFYRLWSVDHGEQSVVTAP; left off: large carriers)	0.03
TAB1C21: polypeptide comprising 21 amino acids of the carboxy terminal of TAB1 (FAEFYRLWSVDHGEQSVVTAP; left off: large carriers)	0.03
TAB1C22: polypeptide comprising 22 amino acids of the carboxy terminal of TAB1 (DFAEFYRLWSVDHGEQSVVTAP; left off: large carriers)	0.03
TAB1C23: polypeptide comprising 23 amino acids of the carboxy terminal of TAB1 (VDFAEFYRLWSVDHGEQSVVTAP; left off: large carriers)	0.05
TAB1C24: polypeptide comprising 24 amino acids of the carboxy terminal of TAB1 (YVDFAEFYRLWSVDHGEQSVVTAP; left off: large carriers)	0.35
TAB1C45 Δ19: lacks 19 amino acids from the carboxy terminal of the 45 amino acid carboxy terminal portion of TAB1 (GLFRSRPAHSLPPGEDGRVEPYVDFA; UniProt Q15750 460-485, looked up, fragment)	0.13
TAB1C45 Δ20: lacks 20 amino acids from the carboxy terminal of the 45 amino acid carboxy terminal portion of TAB1 (GLFRSRPAHSLPPGEDGRVEPYVDF; UniProt Q15750 460-484, looked up, fragment)	0.11
TAB1C45 Δ21: lacks 21 amino acids from the carboxy terminal of the 45 amino acid carboxy terminal portion of TAB1 (GLFRSRPAHSLPPGEDGRVEPYVD; UniProt Q15750 460-483, looked up, fragment)	0.01
TAB1C45 Δ22: lacks 22 amino acids from the carboxy terminal of the 45 amino acid carboxy terminal portion of TAB1 (GLFRSRPAHSLPPGEDGRVEPYV; UniProt Q15750 460-482, looked up, fragment)	0.02
TAB1C45 Δ23: lacks 23 amino acids from the carboxy terminal of the 45 amino acid carboxy terminal portion of TAB1 (GLFRSRPAHSLPPGEDGRVEPY; UniProt Q15750 460-481, looked up, fragment)	0.00
TAB1C45 Δ24: lacks 24 amino acids from the carboxy terminal of the 45 amino acid carboxy terminal portion of TAB1 (GLFRSRPAHSLPPGEDGRVEP; UniProt Q15750 460-480, looked up, fragment)	0.02
TAB1C45 Δ25: lacks 25 amino acids from the carboxy terminal of the 45 amino acid carboxy terminal portion of TAB1 (GLFRSRPAHSLPPGEDGRVE; UniProt Q15750 460-479, looked up, fragment)	0.01

Each molecule was assayed on TAK1 (assay: Growth of yeast SY1984-P on plate without histidine: ability of TAB1 deletion mutants to activate TAK1). Conditions: growth of yeast SY1984-P with pNV11-HU11 on SC-His plate, 30° C.
Type: cell-based
Text: The region of TAB1 required to induce the kinase activity after binding to TAK1 was identified using TAB1 deletion mutants.
Expression vectors for the 40, 35 and 30 amino acid regions (FIG. 14) in the carboxy terminal of TAB1 were constructed as described below. Thus, genes encoding 40, 35 and 30 amino acid regions respectively in the carboxy terminal of TAB1 were amplified by the PCR method as described above, digested with restriction enzymes XhoI and EcoRI, and inserted to the GAL4 transcription activated domain expression vector pGAD10 to construct pGAD-TAB1C40, pGAD-TAB1C35 and pGAD-TAB1C30, respectively. Furthermore, expression vectors for the TAB1 deletion mutants (FIG. 14) comprising 68, 45 and 25 amino acid regions in the carboxy terminal of TAB1 used were pGAD-TAB1, pGAD-TAB1C45 and pGAD-TAB1C25.
Subsequently, it was investigated whether each TAB1 deletion mutant can induce the kinase activity of TAK1 using the method described in Japanese Unexamined Patent Publication (Kokai) 9(1997)-163990. Thus, the above TAB1 deletion mutant expression vector and TAK1 expression vector pNV11-HU11 (Yamaguchi, K. et al., Science (1995) 270, 2008-2011) were introduced into Saccharomyces cereviceae SY1984-P strain (his3Δ, stellΔ, FUS1p::HIS3, STE7^P368) to obtain deletion mutants. […] These transformants were plated onto a SC-His (glucose 20 g, agar (manufactured by DIFCO) 20 g, Yeast Nitrogen Base w/o amino acids (manufactured by DIFCO) 6.7 g, adenine 100 mg, isoleucine 30 mg, valine 150 mg, arginine 20 mg, lysine 30 mg, methionine 20 mg, phenylalanine 50 mg, threonine 200 mg, tyrosine 30 mg per liter of medium) plate containing no histidine, incubated at 30° C., and the growth of yeast transformed with each expression vector was confirmed in order to evaluate the ability of each TAB1deletion mutant to activate TAK1.

Molecule	ability to activate TAK1
TAB1C25: polypeptide comprising 25 amino acids of the carboxy terminal of TAB1 (PYVDFAEFYRLWSVDHGEQSVVTAP; left off: large carriers)	not
TAB1C30: 30 amino acid region in the carboxy terminal of TAB1 (DGRVEPYVDFAEFYRLWSVDHGEQSVVTAP; left off: large carriers)	observed
TAB1C35: 35 amino acid region in the carboxy terminal of TAB1 (LPPGEDGRVEPYVDFAEFYRLWSVDHGEQSVVTAP; left off: large carriers)	observed
TAB1C40: 40 amino acid region in the carboxy terminal of TAB1 (RPAHSLPPGEDGRVEPYVDFAEFYRLWSVDHGEQSVVTAP; left off: large carriers)	observed
TAB1C45: polypeptide comprising 45 amino acids of the carboxy terminal of TAB1 (GLFRSRPAHSLPPGEDGRVEPYVDFAEFYRLWSVDHGEQSVVTAP; left off: large carriers)	observed
TAB1C68: 68 amino acid residues of the carboxy terminal of the TAB1 polypeptide (pGAD-TAB1) (protein, GAL4 activation domain fusion) QSPTLTLQSTNTHTQSSSSSSDGGLFRSRPAHSLPPGEDGRVEPYVDFAEFYRLWSVDHGEQSVVTAP	observed
